{"source": "paper PMC5299495", "about": "“Co‐immobilized Phosphorylated Cofactors and Enzymes as Self‐Sufficient Heterogeneous Biocatalysts for Chemical Processes” (Angewandte Chemie (International Ed. in English), 2016)", "substrate": "NC(=O)c1ccc[n+]([C@@H]2O[C@H](COP(=O)(O)OP(=O)(O)OC[C@H]3O[C@@H](n4cnc5c(N)ncnc54)[C@H](O)[C@@H]3O)[C@@H](O)[C@H]2O)c1", "test": "steady-state kinetics, soluble enzyme and soluble NAD+", "type": "biochemical, [Candida] boidinii", "conditions": "free enzyme; co-substrate formate"}
{"protein": "Cb‐FDH ([Candida] boidinii) (protein, free soluble enzyme) MKIVLVLYDAGKHAADEEKLYGCTENKLGIANWLKDQGHELITTSDKEGETSELDKHIPDADIIITTPFHPAYITKERLDKAKNLKLVVVAGVGSDHIDLDYINQTGKKISVLEVTGSNVVSVAEHVVMTMLVLVRNFVPAHEQIINHDWEVAAIAKDAYDIEGKTIATIGAGRIGYRVLERLLPFNPKELLYYDYQALPKEAEEKVGARRVENIEELVAQADIVTVNAPLHAGTKGLINKELLSKFKKGAWLVNTARGAICVAEDVAAALESGQLRGYGGDVWFPQPAPKDHPWRDMRNKYGAGNAMTPHYSGTTLDAQTRYAEGTKNILESFFTGKFDYRPQDIILLNGEYVTKAYGKHDKK", "values": [{"measurement": "Km", "value": "85 ± 0.9", "unit": "µM"}]}
